This note sets out measurements from article PMC3264566, “Structure-Function Studies of DNA Binding Domain of Response Regulator KdpE Reveals Equal Affinity Interactions at DNA Half-Sites”.

Changes are numbered by the printed parent chain.

What all share (details): protein: recombinant; tags: N-terminal His-tag removed with TEV; chain copies: 2; blunt
The target in data set [1] is T1, KdpE DBD (KdpEDBD) (Escherichia coli str. K-12 substr. …, UniProt P21866 124-225).
T1 sequence: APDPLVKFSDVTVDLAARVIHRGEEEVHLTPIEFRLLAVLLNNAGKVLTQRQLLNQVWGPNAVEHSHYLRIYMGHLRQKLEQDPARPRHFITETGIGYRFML
As to the kind of experiment: EMSA; minimal 21 bp; AUC: 50 mM HEPES pH 7.4, 150 mM KCl, 1 mM EDTA, 20 C, DNA 0.5 uM in SV; EMSA: 10 mM Tris pH 8.0, 50 mM NaCl, 5% glycerol, 0.1% Triton X-100, 10 mM DTT, 1 mM EDT. (In general: Mobility shift assays separate free from complexed probe on a gel.)

Data set [2] has as its target T1, KdpE DBD (KdpEDBD). As to the kind of experiment: AUC sedimentation equilibrium; S1 half-site only, 1:1, AB model; AUC: 50 mM HEPES pH 7.4, 150 mM KCl, 1 mM EDTA, 20 C, DNA 0.5 uM in SV; EMSA: 10 mM Tris pH 8.0, 50 mM NaCl, 5% glycerol, 0.1% Triton X-100, 10 mM DTT, 1 mM EDT.
For data set [3], the target named is T1, KdpE DBD (KdpEDBD). As to the kind of experiment: AUC sedimentation equilibrium; S2 half-site only, 1:1, AB model; AUC: 50 mM HEPES pH 7.4, 150 mM KCl, 1 mM EDTA, 20 C, DNA 0.5 uM in SV; EMSA: 10 mM Tris pH 8.0, 50 mM NaCl, 5% glycerol, 0.1% Triton X-100, 10 mM DTT, 1 mM EDT.
In data set [4] the target is T1, KdpE DBD (KdpEDBD). As to the kind of experiment: AUC sedimentation velocity (Sw isotherm); two-site model, Kd1; AUC: 50 mM HEPES pH 7.4, 150 mM KCl, 1 mM EDTA, 20 C, DNA 0.5 uM in SV; EMSA: 10 mM Tris pH 8.0, 50 mM NaCl, 5% glycerol, 0.1% Triton X-100, 10 mM DTT, 1 mM EDT.
In data set [5] the target is T1, KdpE DBD (KdpEDBD). As to the kind of experiment: AUC sedimentation equilibrium; first binding event, ABB model (macroscopic; upper limit); AUC: 50 mM HEPES pH 7.4, 150 mM KCl, 1 mM EDTA, 20 C, DNA 0.5 uM in SV; EMSA: 10 mM Tris pH 8.0, 50 mM NaCl, 5% glycerol, 0.1% Triton X-100, 10 mM DTT, 1 mM EDT.

B1: kdpFABCBS 5'del1,3'del8 (21 bp) (dsDNA)
DNA 1: ATTTTTATACTTTTTTTACAC
DNA 2: GTGTAAAAAAAGTATAAAAAT
Take B1: the binding result in the data set with KdpE DBD (KdpEDBD) [1] is listed as “binds”.

B2: kdpFABCBS-7 (dsDNA)
DNA 1: CATTTTTATACTTTTTCCACACCCCGCCCG
DNA 2: CGGGCGGGGTGTGGAAAAAGTATAAAAATG
For the molecule B2, the Kd (as a rule, the free concentration of one partner at which half of the binding sites on the other are occupied at equilibrium, for simple one-to-one binding) with KdpE DBD (KdpEDBD) [2] was 350 ± 100 nM.

B3: kdpFABCBS-1 (dsDNA)
DNA 1: CATTCCTATACTTTTTTTACACCCCGCCCG
DNA 2: CGGGCGGGGTGTAAAAAAAGTATAGGAATG
On to B3, for which the dissociation constant (Kd) with KdpE DBD (KdpEDBD) [3] is 200 ± 100 nM.

B4: kdpFABCBS 30 bp (dsDNA)
DNA 1: B3 DNA 1 with C5T, C6T
DNA 2: B3 DNA 2 with G25A, G26A
Consider B4, for which the dissociation constant Kd with KdpE DBD (KdpEDBD) [4] amounted to 90 nM; with KdpE DBD (KdpEDBD) [5] it was 80 ± 25 nM.
